Test: yeast display, Sf9 membrane polyspecificity reagent, FACS + sequencing; frameworks hold sequencing errors
Summary of the method: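 Genes from sorted yeast were amplified by colony PCR, read by MiSeq 2 × 250 sequencing and filtered on CDR length. These cells carried a synthetic nanobody library in Saccharomyces cerevisiae BJ5465 and were sorted by FACS into low and high (top ~1%) gates on anti-HA and streptavidin fluorescence. Polyreactivity is labelled according to the gate of origin.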

Sequence	polyreactivity (PSR sort gate)
QVQLVESGGGLVHAGGSLRLSCAASGRIFTTNAMGWYRQAPGKERELVASITRSGSTYYADSVKGRFTISRDNAKNTVYLQMNSLKPEVTAVYYCAAYAYIFLDWGGYPYYLYEYDYWGQGTQVTVSS	low polyreactivity
QVQLVESGGGLVHAGGSLRLSCAASGRIFTYYGMGWYRQAPGKERELVAAITWNGGSTYYADSVKGRFTISRDNAKNTVYLQMNSLKPEDTAVYYCNAVVYARSGGAQYGYWGQGTQVTVSS	low polyreactivity
QVQLVESGGGLVHAGGSLRLSCAASGRIFYYYTKGWYRQEPGKERELVAAISSGGSTNYADSVKGRFTISRDNAKNTVYLQMNSLKPEHTAVYYWARYGGYWSLKYDYWGQGTQVTVSS	high polyreactivity
QVQLVESGGGLVHAGGSLRLSCAASGRTFDIYAMGWYRQAPGKERELVAAISSGGSTYYADSVKGRFRISRDNAKKTVYLQKNSLKPEDTAVYYCAVRWYDQVSRRGIGYYWGQGTQVTVSS	low polyreactivity
QVQLVESGGGLVHAGGSLRLSCAASGRTFKFYAMGWYRQAPGKERELVAAISGSGGTTRYADSVKGRFTISRDNAKNTVYLQMNSLKPEDTAVYYCAARPPGLALEYGYWGQGTQVTVSS	high polyreactivity
QVQLVESGGGLVHAGGSLRLSCAASGRTFVSYAMGWYRQAPGKERELVAAITNAGSTYYADSVKGRFTISRDNAKNTVYLQMNSLKPEDTAVYYCAATYWDYWGYGYDYWGQGTQVTVSS	high polyreactivity
QVQLVESGGGLVHAGGSLRLSCAASGRTVKNNAMGWYRQSPGKERDLVAAISSTGSTNYADSVKGRFTISRDNAKNPVYLQMNSLKPADTAVYYCAAEGIFRYYTQATMEYWGQGTQVTVSS	low polyreactivity
QVQLVESGGGLVHAGGSLRLSCAASGSIFGRYVMGWYRQAPGKERELVAAITRSGGSTYYADSVKGRFTISRDNAKNTVYLQMNSLKPEDTAVYYCNADVNFIDDDYWGHGTQVTVSS	low polyreactivity
QVQLVESGGGLVHAGGSLRLSCAASGSIFIYYAMGWYRQPPGKERELVAAIDRSGGNTYYADSVKGRFTISRDYAKTSVYLEMNSLKPEDTAVDYCAAQVHRRVQYDYWGQRTQVTVSS	high polyreactivity
QVQLVESGGGLVHAGGSLRLSCAASGSIFPSNAMGWYREAPGKERELVAAISQSGGRTYYADSVKGRFTISRDNAKNTVYLQMNSLKPEDTAVYYCAADHRRAGMDYWGQGTQVTVSS	low polyreactivity
QVQLVESGGGLVHAGGSLRLSCAASGSIFTWNGMGWYRQAPGKERELVAGMSYSGGITYTDSVKGRFTISRDNAKNTVYLQMNSLKPEDTAVYYCNARSKVAYYRHYYWGQGTQVTVSS	low polyreactivity
QVQLVESGGGLVHAGGSLRLSCAASGSISTRNAMGWYRQAPGKDRELVASITSGGSTYYADSVKGRFTISRDNAKNTVYLQMNSLKPEDTAVYYCAARRRRPWGYGYGYWGQGTQVTVSS	high polyreactivity
QVQLVESGGGLVHAGGSLRLSCAASGSTFDKYAMGWYRQAPGKERELVAAITWGGGSTYYADSVKGRFTISRDYAKNTVYLQMNSLKPEDTAVYYCNAYRVYAWIEYNYWGQGTQVTVSS	low polyreactivity
QVQLVESGGGLVHAGGSLRLSCAASGSTFQLNAMGWYRQAPGKERELVAAISTRGGSTYYADSLKGRFTISRDNAKNTVYLQMNSLKPEDTAVYYCAARLYTRRDYWGQATQVTVSS	high polyreactivity
QVQLVESGGGLVHAGGSLRLSCAASGSTFTRNAMGWYRQAPGKERELVATISWRSGSTYYADSVKGRFTISRDNAKNTVYLQMNSLKQEDTAGYYCAADYLNIYNYWGQGTQVTVSS	high polyreactivity
QVQLVESGGGLVHAGGSLRLSCAASGSTFVRNAMGWYRPAPGKERQLVAAITSRGGSTYYADSVKGRFTISRDNAKNTVYLQMISLKPEDTAVYYCAARFGVKRGQYDYWGQGTQVTVSS	high polyreactivity
QVQLVESGGGLVHAGGSLRLSCAASGSTFYSNVMGWYRQAPGKERELVAAISRSGGSTYYADSVKGRFTISRDNAKNTVYLQMNSLKAEDTAVYYCNRLRAPVRGDYWGQGTQVTVSS	high polyreactivity
QVQLVESGGGLVHAGGSLRLSCAASGYTFDSYTMGWYRQAPGKERELVAAISGRGGSTYYADSVKGRFTISRDNAKNTVYIQMNSLKPEDTAVYYCNTYPPIGYDYWGQGTQVTVSS	low polyreactivity
QVQLVESGGGLVHAGGSLRLSCAASGYTFPLYAMGWYRQAPGKERELVADINIGGASTYYADSVKGRFTISRDNAKNTVYLQMNSLKPEDTAVYYCAKEYYDGYFPTFDYDYWGQGTQVTVSS	low polyreactivity
QVQLVESGGGLVHAGGSLRLSCAASGYTFPLYAMGWYRQAPGKERELVAGINWRGGSTYYADSVKCRFTISRDNAKNTVYLQIKSLKPEDTAVYYCAADFSRYYTGGYDYWGQGTQVTVSS	low polyreactivity
QVQLVESGGGLVHAGGSLRLSCAASGYTFQAYAMGWYRQPPGKERELVAAISFSSGSTYYADSVKGRFTISRDNAKNTVYLQMNSLKPEDTAVYDCATDNWSVNGGYNYWGQGTQVTVSS	low polyreactivity
QVQLVESGGGLVHAGGSLRLSCAAYGSIFSKYVMGGSREAPGKERELVAAISWSGTRTYYADSVMGRFTISRDNAKNTVYLQMNSLKPEDTAVYYCAARRLYSGHQYDYWGQGTQVTVSS	high polyreactivity
QVQLVESGGGLVHAGGSLRLSCAAYGSIFYSYAMGWYRQAPGKERELVAAITSVGNTNYADSVKGRFTISRDNAKNTVYLQMNSLKPEDTAVYYYWGQGTQVTVSS	low polyreactivity
QVQLVESGGGLVHAGGSLRLSCADSGSTLGSNAMGWYRQAPGKERELVAAITWSGGTTYYADSVKGRFTISRDNAKNTVYLQMNSLKPEDTAVYYCATGQSVIYRYEYWGQGTQVTVSS	low polyreactivity
QVQLVESGGGLVHAGGSLRLSCAPSGRTFPRYAMGWYRQAPGKERELVAAISVRAGITYYADSVKGRFTISRDNAKNTVYLQMNSLKPEDTAVYYCDKEHSSTSYDEGDYWGQGTQVTVSS	low polyreactivity
QVQLVESGGGLVHAGGSLRLSCASSGSALFWNAMGWYRQAPGKERELVATITNSGGSTYYADSVKGRFTISRDNAKNTVYLQMNSLKPEDTAVYYCNADESAYWKLRHGLGSDSWGQGTQVTVSS	low polyreactivity
QVQLVESGGGLVHAGGSLRLSCDASGIIFFIYTMGWYRQAPGKERELVAVITRGGRTNYADSVKGRFTISRDNAKNTVYLQMNSLKPEDTAVYYCAAKGSRSYYWGQGTQVNVSS	high polyreactivity
QVQLVESGGGLVHAGGSLRLSCDASGITFGPYGMGWYRQAHGKEREFVATITTIGGITYYADSVKGRFTISRDNAKNTFYLQMNSLKPEDTAVYYCAAPWFHGYDALVDYWGQGTQVTVSS	low polyreactivity
QVQLVESGGGLVHAGGTLRLSCAASGGIFYHYTMGWYRQAPGKERELVASIRVSGGRTYNADSVTGRFTISRDNAKNTVYLQMNSLKPQDSAVYFCNARGSWYQPTYDYWGQGTQVTVSS	high polyreactivity
QVQLVESGGGLVHEGGSLRLSFAASGPTFYRYTMGWYRQAPGKERELVATITGGGSTNYADSVKGRFTISRDNAKNTVYLQMNSLKPEDTAVYYCARAVVQSRGPPRYKTPYDYWGQGTQVTVSS	low polyreactivity

Reference: the nanobody polyreactivity screen of Harvey et al. (2022)
